In patent publication US9957297B2, “Template-fixed peptidomimetics as inhibitors of FPR1” (POLYPHOR AG, priority 2011, dated 2018):
Bridges are numbered along the chain shown (N, C = ends). [ ]: non-standard residue; d: D form. dTic = O=C(O)[C@H]1Cc2ccccc2CN1; Orn = NCCC[C@H](N)C(=O)O; Dab = NCC[C@H](N)C(=O)O

T1: Formyl-Peptide Receptor 1 (UniProt P21462 1-350, limits assumed)
T1 sequence (looked up): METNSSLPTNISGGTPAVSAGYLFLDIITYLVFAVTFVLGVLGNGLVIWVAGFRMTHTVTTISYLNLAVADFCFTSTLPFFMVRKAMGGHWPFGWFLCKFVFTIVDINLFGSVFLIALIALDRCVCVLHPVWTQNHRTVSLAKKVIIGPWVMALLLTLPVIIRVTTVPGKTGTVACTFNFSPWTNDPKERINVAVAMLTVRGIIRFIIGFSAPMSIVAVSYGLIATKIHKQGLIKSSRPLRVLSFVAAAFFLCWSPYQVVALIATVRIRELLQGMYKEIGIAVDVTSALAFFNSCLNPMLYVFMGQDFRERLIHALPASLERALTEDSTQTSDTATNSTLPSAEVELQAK


biological target: T1, Formyl-Peptide Receptor 1; experiment: cell-based or functional assay

Row | Binder | β-Arrestin IC50 [nM]
1 | cyclo(HHKCHG[dP]WTICYEK[dP]P) (disulfide 4-11; SMILES CC[C@H](C)[C@@H]1NC(=O)[C@H]([C@@H](C)O)NC(=O)[C@H](Cc2c[nH]c3ccccc23)NC(=O)[C@H]2CCCN2C(=O)CNC(=O)[C@H](Cc2c[nH]cn2)NC(=O)[C@@H]2CSSC[C@H](NC1=O)C(=O)N[C@@H](Cc1ccc(O)cc1)C(=O)N[C@@H](CCC(=O)O)C(=O)N[C@@H](CCCCN)C(=O)N1CCC[C@@H]1C(=O)N1CCC[C@H]1C(=O)N[C@@H](Cc1c[nH]cn1)C(=O)N[C@@H](Cc1c[nH]cn1)C(=O)N[C@@H](CCCCN)C(=O)N2) [cyclo(-His-His-Lys-Cys-His-Gly-^DPro-Trp-Thr-Ile-Cys-Tyr-Glu-Lys-^DPro-Pro-)] | 239
2 | cyclo(YHKCHG[dP]WTICYDK[dP]P) (disulfide 4-11; SMILES CC[C@H](C)[C@@H]1NC(=O)[C@H]([C@@H](C)O)NC(=O)[C@H](Cc2c[nH]c3ccccc23)NC(=O)[C@H]2CCCN2C(=O)CNC(=O)[C@H](Cc2c[nH]cn2)NC(=O)[C@@H]2CSSC[C@H](NC1=O)C(=O)N[C@@H](Cc1ccc(O)cc1)C(=O)N[C@@H](CC(=O)O)C(=O)N[C@@H](CCCCN)C(=O)N1CCC[C@@H]1C(=O)N1CCC[C@H]1C(=O)N[C@@H](Cc1ccc(O)cc1)C(=O)N[C@@H](Cc1c[nH]cn1)C(=O)N[C@@H](CCCCN)C(=O)N2) [cyclo(-Tyr-His-Lys-Cys-His-Gly-^DPro-Trp-Thr-Ile-Cys-Tyr-Asp-Lys-^DPro-Pro-)] | 37
3 | cyclo(YHKCHG[dTic]WTICYEK[dP]P) (disulfide 4-11; SMILES CC[C@H](C)[C@@H]1NC(=O)[C@H]([C@@H](C)O)NC(=O)[C@H](Cc2c[nH]c3ccccc23)NC(=O)[C@H]2Cc3ccccc3CN2C(=O)CNC(=O)[C@H](Cc2c[nH]cn2)NC(=O)[C@@H]2CSSC[C@H](NC1=O)C(=O)N[C@@H](Cc1ccc(O)cc1)C(=O)N[C@@H](CCC(=O)O)C(=O)N[C@@H](CCCCN)C(=O)N1CCC[C@@H]1C(=O)N1CCC[C@H]1C(=O)N[C@@H](Cc1ccc(O)cc1)C(=O)N[C@@H](Cc1c[nH]cn1)C(=O)N[C@@H](CCCCN)C(=O)N2) [cyclo(-Tyr-His-Lys-Cys-His-Gly-^DTic-Trp-Thr-Ile-Cys-Tyr-Glu-Lys-^DPro-Pro-)] | 21
4 | cyclo(YHKCHG[dP]WTICYWK[dP]P) (disulfide 4-11; SMILES CC[C@H](C)[C@@H]1NC(=O)[C@H]([C@@H](C)O)NC(=O)[C@H](Cc2c[nH]c3ccccc23)NC(=O)[C@H]2CCCN2C(=O)CNC(=O)[C@H](Cc2c[nH]cn2)NC(=O)[C@@H]2CSSC[C@H](NC1=O)C(=O)N[C@@H](Cc1ccc(O)cc1)C(=O)N[C@@H](Cc1c[nH]c3ccccc13)C(=O)N[C@@H](CCCCN)C(=O)N1CCC[C@@H]1C(=O)N1CCC[C@H]1C(=O)N[C@@H](Cc1ccc(O)cc1)C(=O)N[C@@H](Cc1c[nH]cn1)C(=O)N[C@@H](CCCCN)C(=O)N2) [cyclo(-Tyr-His-Lys-Cys-His-Gly-^DPro-Trp-Thr-Ile-Cys-Tyr-Trp-Lys-^DPro-Pro-)] | 15
5 | cyclo(YHKCWG[dP]WTICY[Dab]K[dP]P) (disulfide 4-11; SMILES CC[C@H](C)[C@@H]1NC(=O)[C@H]([C@@H](C)O)NC(=O)[C@H](Cc2c[nH]c3ccccc23)NC(=O)[C@H]2CCCN2C(=O)CNC(=O)[C@H](Cc2c[nH]c3ccccc23)NC(=O)[C@@H]2CSSC[C@H](NC1=O)C(=O)N[C@@H](Cc1ccc(O)cc1)C(=O)N[C@@H](CCN)C(=O)N[C@@H](CCCCN)C(=O)N1CCC[C@@H]1C(=O)N1CCC[C@H]1C(=O)N[C@@H](Cc1ccc(O)cc1)C(=O)N[C@@H](Cc1c[nH]cn1)C(=O)N[C@@H](CCCCN)C(=O)N2) [cyclo(-Tyr-His-Lys-Cys-Trp-Gly-^DPro-Trp-Thr-Ile-Cys-Tyr-Dab-Lys-^DPro-Pro-)] | 633
6 | cyclo(YHKCWG[dA]WTICYEK[dP]P) (disulfide 4-11; SMILES CC[C@H](C)[C@@H]1NC(=O)[C@H]([C@@H](C)O)NC(=O)[C@H](Cc2c[nH]c3ccccc23)NC(=O)[C@@H](C)NC(=O)CNC(=O)[C@H](Cc2c[nH]c3ccccc23)NC(=O)[C@@H]2CSSC[C@H](NC1=O)C(=O)N[C@@H](Cc1ccc(O)cc1)C(=O)N[C@@H](CCC(=O)O)C(=O)N[C@@H](CCCCN)C(=O)N1CCC[C@@H]1C(=O)N1CCC[C@H]1C(=O)N[C@@H](Cc1ccc(O)cc1)C(=O)N[C@@H](Cc1c[nH]cn1)C(=O)N[C@@H](CCCCN)C(=O)N2) [cyclo(-Tyr-His-Lys-Cys-Trp-Gly-^DAla-Trp-Thr-Ile-Cys-Tyr-Glu-Lys-^DPro-Pro-)] | 69
7 | cyclo([Dab]HKCWG[dP]WTICYEK[dP]P) (disulfide 4-11; SMILES CC[C@H](C)[C@@H]1NC(=O)[C@H]([C@@H](C)O)NC(=O)[C@H](Cc2c[nH]c3ccccc23)NC(=O)[C@H]2CCCN2C(=O)CNC(=O)[C@H](Cc2c[nH]c3ccccc23)NC(=O)[C@@H]2CSSC[C@H](NC1=O)C(=O)N[C@@H](Cc1ccc(O)cc1)C(=O)N[C@@H](CCC(=O)O)C(=O)N[C@@H](CCCCN)C(=O)N1CCC[C@@H]1C(=O)N1CCC[C@H]1C(=O)N[C@@H](CCN)C(=O)N[C@@H](Cc1c[nH]cn1)C(=O)N[C@@H](CCCCN)C(=O)N2) [cyclo(-Dab-His-Lys-Cys-Trp-Gly-^DPro-Trp-Thr-Ile-Cys-Tyr-Glu-Lys-^DPro-Pro-)] | 248
8 | cyclo(YHACWG[dP]WTICYQK[dP]E) (disulfide 4-11; SMILES CC[C@H](C)[C@@H]1NC(=O)[C@H]([C@@H](C)O)NC(=O)[C@H](Cc2c[nH]c3ccccc23)NC(=O)[C@H]2CCCN2C(=O)CNC(=O)[C@H](Cc2c[nH]c3ccccc23)NC(=O)[C@@H]2CSSC[C@H](NC1=O)C(=O)N[C@@H](Cc1ccc(O)cc1)C(=O)N[C@@H](CCC(N)=O)C(=O)N[C@@H](CCCCN)C(=O)N1CCC[C@@H]1C(=O)N[C@@H](CCC(=O)O)C(=O)N[C@@H](Cc1ccc(O)cc1)C(=O)N[C@@H](Cc1c[nH]cn1)C(=O)N[C@@H](C)C(=O)N2) [cyclo(-Tyr-His-Ala-Cys-Trp-Gly-^DPro-Trp-Thr-Ile-Cys-Tyr-Gln-Lys-^DPro-Glu-)] | 60
9 | cyclo(GHKCHG[dP]WTICYEK[dP]P) (disulfide 4-11; SMILES CC[C@H](C)[C@@H]1NC(=O)[C@H]([C@@H](C)O)NC(=O)[C@H](Cc2c[nH]c3ccccc23)NC(=O)[C@H]2CCCN2C(=O)CNC(=O)[C@H](Cc2c[nH]cn2)NC(=O)[C@@H]2CSSC[C@H](NC1=O)C(=O)N[C@@H](Cc1ccc(O)cc1)C(=O)N[C@@H](CCC(=O)O)C(=O)N[C@@H](CCCCN)C(=O)N1CCC[C@@H]1C(=O)N1CCC[C@H]1C(=O)NCC(=O)N[C@@H](Cc1c[nH]cn1)C(=O)N[C@@H](CCCCN)C(=O)N2) [cyclo(-Gly-His-Lys-Cys-His-Gly-^DPro-Trp-Thr-Ile-Cys-Tyr-Glu-Lys-^DPro-Pro-)] | 111
10 | cyclo(YHKCHG[dP]WTICYEK[dP]P) (disulfide 4-11) [cyclo(-Tyr-His-Lys-Cys-His-Gly-^DPro-Trp-Thr-Ile-Cys-Tyr-Glu-Lys-^DPro-Pro-)] | 44
11 | cyclo(DHKCHG[dP]WTICYEK[dP]P) (disulfide 4-11; SMILES CC[C@H](C)[C@@H]1NC(=O)[C@H]([C@@H](C)O)NC(=O)[C@H](Cc2c[nH]c3ccccc23)NC(=O)[C@H]2CCCN2C(=O)CNC(=O)[C@H](Cc2c[nH]cn2)NC(=O)[C@@H]2CSSC[C@H](NC1=O)C(=O)N[C@@H](Cc1ccc(O)cc1)C(=O)N[C@@H](CCC(=O)O)C(=O)N[C@@H](CCCCN)C(=O)N1CCC[C@@H]1C(=O)N1CCC[C@H]1C(=O)N[C@@H](CC(=O)O)C(=O)N[C@@H](Cc1c[nH]cn1)C(=O)N[C@@H](CCCCN)C(=O)N2) [cyclo(-Asp-His-Lys-Cys-His-Gly-^DPro-Trp-Thr-Ile-Cys-Tyr-Glu-Lys-^DPro-Pro-)] | 177
12 | cyclo(YHKCHG[dP]WTICYEK[dA]E) (disulfide 4-11; SMILES CC[C@H](C)[C@@H]1NC(=O)[C@H]([C@@H](C)O)NC(=O)[C@H](Cc2c[nH]c3ccccc23)NC(=O)[C@H]2CCCN2C(=O)CNC(=O)[C@H](Cc2c[nH]cn2)NC(=O)[C@@H]2CSSC[C@H](NC1=O)C(=O)N[C@@H](Cc1ccc(O)cc1)C(=O)N[C@@H](CCC(=O)O)C(=O)N[C@@H](CCCCN)C(=O)N[C@H](C)C(=O)N[C@@H](CCC(=O)O)C(=O)N[C@@H](Cc1ccc(O)cc1)C(=O)N[C@@H](Cc1c[nH]cn1)C(=O)N[C@@H](CCCCN)C(=O)N2) [cyclo(-Tyr-His-Lys-Cys-His-Gly-^DPro-Trp-Thr-Ile-Cys-Tyr-Glu-Lys-^DAla-Glu-)] | 124
13 | cyclo(YHKCHG[dA]WTICYEK[dP]P) (disulfide 4-11; SMILES CC[C@H](C)[C@@H]1NC(=O)[C@H]([C@@H](C)O)NC(=O)[C@H](Cc2c[nH]c3ccccc23)NC(=O)[C@@H](C)NC(=O)CNC(=O)[C@H](Cc2c[nH]cn2)NC(=O)[C@@H]2CSSC[C@H](NC1=O)C(=O)N[C@@H](Cc1ccc(O)cc1)C(=O)N[C@@H](CCC(=O)O)C(=O)N[C@@H](CCCCN)C(=O)N1CCC[C@@H]1C(=O)N1CCC[C@H]1C(=O)N[C@@H](Cc1ccc(O)cc1)C(=O)N[C@@H](Cc1c[nH]cn1)C(=O)N[C@@H](CCCCN)C(=O)N2) [cyclo(-Tyr-His-Lys-Cys-His-Gly-^DAla-Trp-Thr-Ile-Cys-Tyr-Glu-Lys-^DPro-Pro-)] | 77
14 | cyclo([Dab]HKCHG[dP]WTICYEK[dP]P) (disulfide 4-11; SMILES CC[C@H](C)[C@@H]1NC(=O)[C@H]([C@@H](C)O)NC(=O)[C@H](Cc2c[nH]c3ccccc23)NC(=O)[C@H]2CCCN2C(=O)CNC(=O)[C@H](Cc2c[nH]cn2)NC(=O)[C@@H]2CSSC[C@H](NC1=O)C(=O)N[C@@H](Cc1ccc(O)cc1)C(=O)N[C@@H](CCC(=O)O)C(=O)N[C@@H](CCCCN)C(=O)N1CCC[C@@H]1C(=O)N1CCC[C@H]1C(=O)N[C@@H](CCN)C(=O)N[C@@H](Cc1c[nH]cn1)C(=O)N[C@@H](CCCCN)C(=O)N2) [cyclo(-Dab-His-Lys-Cys-His-Gly-^DPro-Trp-Thr-Ile-Cys-Tyr-Glu-Lys-^DPro-Pro-)] | 194
15 | cyclo(YH[Orn]CHG[dP]WTICYEK[dP]P) (disulfide 4-11) [cyclo(-Tyr-His-Orn-Cys-His-Gly-^DPro-Trp-Thr-Ile-Cys-Tyr-Glu-Lys-^DPro-Pro-)] | 313
